# Data: PMC2901993 (Biochemical and biophysical research communications, 2010)
# Experiments:
# [1] = target: translin (in translin-trax complex);trax (translin-associated factor X) (Mus musculus;Mus musculus, UniProt Q62348;Q9QZE7 1-228;1-290, |); experiment: fluorescence polarization
# [2] = target: translin (TB-RBP) (Mus musculus, UniProt Q62348 1-228); experiment: fluorescence polarization
# Sequence of translin (TB-RBP) (Q62348 whole entry): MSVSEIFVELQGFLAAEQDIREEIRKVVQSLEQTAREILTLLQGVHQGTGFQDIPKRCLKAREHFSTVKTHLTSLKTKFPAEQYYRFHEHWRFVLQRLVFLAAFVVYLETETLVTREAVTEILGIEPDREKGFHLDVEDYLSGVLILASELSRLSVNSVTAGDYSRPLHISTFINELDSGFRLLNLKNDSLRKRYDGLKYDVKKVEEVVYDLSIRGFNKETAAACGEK
# Sequence of translin (in translin-trax complex);trax (translin-associated factor X) (Q62348 whole entry, chain 1 of 2): as the sequence (Q62348 whole entry) above
# Sequence of translin (in translin-trax complex);trax (translin-associated factor X) (Q9QZE7 whole entry, chain 2 of 2): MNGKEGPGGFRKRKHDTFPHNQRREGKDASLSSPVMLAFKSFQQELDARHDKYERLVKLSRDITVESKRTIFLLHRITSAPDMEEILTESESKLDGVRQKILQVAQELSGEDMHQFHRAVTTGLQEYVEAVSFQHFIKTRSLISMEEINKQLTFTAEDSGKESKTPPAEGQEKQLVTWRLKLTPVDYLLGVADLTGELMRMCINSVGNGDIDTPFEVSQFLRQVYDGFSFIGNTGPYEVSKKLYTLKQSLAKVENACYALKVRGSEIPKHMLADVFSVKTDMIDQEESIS
Binder,Kd [1],Kd [2]
TCTGAGCCCTGAGCTGCCAAGGAGCCACGAGATCTGAGT (ssDNA) [dPRM-2],4000 nM,10000 nM
UCUGAGCCCUGAGCUGCCAAGGAGCCACGA (ssRNA) [PRM-2(1-30)],–,200 nM
AGAGGAGGAGGAGGAGGAGGAGGAG (ssRNA) [rGAG],–,500 nM
UCUGAGCCCUGAGCUGCCAAGGAGCCACGAGAUCUGAGU (ssRNA) [PRM-2],40000 nM,200 nM
UCUGAGCCCUGAGCUGCCAAGGAGCCACCACAUCUGAGU (ssRNA) [PRM-2 Variant 2],–,200 nM
UCUGAGCCCUCACCUGCCAAGGAGCCACCACAUCUGAGU (ssRNA) [PRM-2 Variant 3],–,300 nM
UCUGAGCCCUCACCUGCCAAGGAGCCACGAGAUCUGAGU (ssRNA) [PRM-2 Variant 1],–,1000 nM
